Results as given in PMC8931054, “Structure-guided unlocking of NaX reveals a non-selective tetrodotoxin-sensitive cation channel” (Nature Communications, 2022).

Target: T1, human NaX channel (human, UniProt Q01118 1-1682)
T1 construct: Full-length human NaX (sodium channel protein type 7 subunit alpha, gene SCN7A), cloned into a pRK vector behind a CMV promoter; Co-expressed and co-purified with untagged β3; No removal of the tags is described; also called SCN7A; source: Expi293 cells, co-transfected with β3, purified (anti-FLAG M2 agarose, Strep-Tactin XT, Superose 6); not shown: 2xStrepII, N-terminal, kept; 2xFLAG, …
T1 sequence (Q01118 whole entry): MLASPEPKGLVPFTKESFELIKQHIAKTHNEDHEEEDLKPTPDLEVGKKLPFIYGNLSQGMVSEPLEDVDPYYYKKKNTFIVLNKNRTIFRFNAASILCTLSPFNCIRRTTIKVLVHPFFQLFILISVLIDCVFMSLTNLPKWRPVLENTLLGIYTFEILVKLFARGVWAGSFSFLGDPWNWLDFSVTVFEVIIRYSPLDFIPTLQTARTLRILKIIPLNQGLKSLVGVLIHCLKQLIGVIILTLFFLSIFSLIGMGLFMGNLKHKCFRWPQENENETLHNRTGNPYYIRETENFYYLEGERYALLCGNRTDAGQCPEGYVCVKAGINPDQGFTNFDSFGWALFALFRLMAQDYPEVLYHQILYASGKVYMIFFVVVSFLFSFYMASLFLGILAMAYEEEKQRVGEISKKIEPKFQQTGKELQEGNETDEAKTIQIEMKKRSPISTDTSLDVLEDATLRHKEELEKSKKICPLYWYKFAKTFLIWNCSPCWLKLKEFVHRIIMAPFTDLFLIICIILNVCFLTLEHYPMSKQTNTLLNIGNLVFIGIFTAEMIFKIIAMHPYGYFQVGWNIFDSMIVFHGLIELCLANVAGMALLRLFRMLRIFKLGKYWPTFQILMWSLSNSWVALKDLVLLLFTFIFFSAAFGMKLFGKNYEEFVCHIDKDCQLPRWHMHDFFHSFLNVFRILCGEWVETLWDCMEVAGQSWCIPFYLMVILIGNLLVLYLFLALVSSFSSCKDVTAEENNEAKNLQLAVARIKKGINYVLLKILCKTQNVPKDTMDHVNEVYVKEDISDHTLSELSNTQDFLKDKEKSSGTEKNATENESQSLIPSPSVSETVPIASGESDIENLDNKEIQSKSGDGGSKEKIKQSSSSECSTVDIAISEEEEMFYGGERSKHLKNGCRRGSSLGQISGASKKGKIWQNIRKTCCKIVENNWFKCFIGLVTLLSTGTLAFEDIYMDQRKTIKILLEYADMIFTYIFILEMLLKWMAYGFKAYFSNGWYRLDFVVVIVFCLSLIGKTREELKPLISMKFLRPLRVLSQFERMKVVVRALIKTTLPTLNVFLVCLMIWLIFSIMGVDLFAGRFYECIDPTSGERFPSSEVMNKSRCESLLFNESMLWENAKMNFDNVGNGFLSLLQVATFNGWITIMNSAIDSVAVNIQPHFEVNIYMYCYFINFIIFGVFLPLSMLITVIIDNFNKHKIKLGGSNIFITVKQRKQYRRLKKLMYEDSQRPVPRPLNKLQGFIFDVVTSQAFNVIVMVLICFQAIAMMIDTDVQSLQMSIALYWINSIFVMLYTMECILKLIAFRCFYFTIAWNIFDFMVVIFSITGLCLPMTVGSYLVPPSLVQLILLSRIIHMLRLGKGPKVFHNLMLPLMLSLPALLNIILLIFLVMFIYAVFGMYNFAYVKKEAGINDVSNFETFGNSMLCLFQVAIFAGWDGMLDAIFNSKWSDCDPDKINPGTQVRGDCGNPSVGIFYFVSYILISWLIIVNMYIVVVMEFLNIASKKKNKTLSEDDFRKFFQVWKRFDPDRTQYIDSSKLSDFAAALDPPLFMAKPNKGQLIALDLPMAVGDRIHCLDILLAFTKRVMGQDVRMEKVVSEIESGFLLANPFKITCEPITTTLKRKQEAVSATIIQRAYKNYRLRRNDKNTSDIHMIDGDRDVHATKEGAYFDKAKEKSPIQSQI
Assay: cryo-EM structure; β3-NaX complex co-expressed in Expi293, purified in GDN by the tags on NaX, reconstituted into POPC:POPE:POPG nanodiscs (MSP1E3D1); 25 mM HEPES pH 7.0, 200 mM NaCl; cross-linked with 0.05% glutaraldehyde before vitrification
Details: both partners purified

B1: human β3-subunit (auxiliary NaV channel β3) (natural protein, UniProt Q9NY72 23-215, looked up)
chain: FPVCVEVPSETEAVQGNPMKLRCISCMKREEVEATTVVEWFYRPEGGKDFLIYEYRNGHQEVESPFQGRLQWNGSKDLQDVSITVLNVTLNDSGLYTCNVSREFEFEAHRPFVKTTRLIPLRVTEEAGEDFTSVVSEIMMYILLVFLTLWLLIEMIYCYRKVSKAEEAAQENASDYLAIPSENKENSAVPVEE
notes: Untagged full-length human sodium channel auxiliary β3-subunit, cloned into a pRK vector behind a CMV promoter; The full-length cDNA was expressed; also called NaVβ3; source: Expi293 cells, co-transfected with NaX, co-purified with tagged NaX
**Q.** Does B1 bind?
**A.** Result: binds
